T1: 3’hExofl (human, UniProt Q8IV48 1-349)
T1 sequence (looked up): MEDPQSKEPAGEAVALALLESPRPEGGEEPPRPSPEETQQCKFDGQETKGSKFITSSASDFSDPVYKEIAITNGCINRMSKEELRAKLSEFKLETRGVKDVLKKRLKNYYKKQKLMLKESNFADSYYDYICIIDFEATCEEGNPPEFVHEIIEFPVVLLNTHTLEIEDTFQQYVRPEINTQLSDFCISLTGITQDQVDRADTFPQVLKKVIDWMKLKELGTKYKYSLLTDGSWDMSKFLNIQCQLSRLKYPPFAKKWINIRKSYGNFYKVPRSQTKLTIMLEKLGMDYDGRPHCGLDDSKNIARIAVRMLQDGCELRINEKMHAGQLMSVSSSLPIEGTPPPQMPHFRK

T2: 3’hExo nuclease domain (human, UniProt Q8IV48 124-349)
T2 sequence (looked up): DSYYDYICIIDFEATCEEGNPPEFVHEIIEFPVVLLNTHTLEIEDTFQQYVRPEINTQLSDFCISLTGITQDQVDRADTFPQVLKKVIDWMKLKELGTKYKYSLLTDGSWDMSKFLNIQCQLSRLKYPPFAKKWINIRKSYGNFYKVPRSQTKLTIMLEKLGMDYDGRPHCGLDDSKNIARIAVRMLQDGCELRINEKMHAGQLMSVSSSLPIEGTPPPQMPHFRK

B1: UPF2^1024-1085 (domain or fragment, human, UniProt Q9HAU5 1024-1085, looked up)
chain: TEGENLEEDEEEEEGGAETEEQSGNESEVNEPEEEEGSDNDDDEGEEEEEENTDYLTDSNKE
modifications: also: 15N-labelled
B2: UPF2-AL (domain or fragment, human, UniProt Q9HAU5 1015-1106, looked up)
chain: NDKDSKDSMTEGENLEEDEEEEEGGAETEEQSGNESEVNEPEEEEGSDNDDDEGEEEEEENTDYLTDSNKENETDEENTEVMIKGGGLKHVP
modifications: 15N-labelled (15N/13C for the assignments) in the NMR experiments
B3: 3’hExo SAP domain (domain or fragment, human, UniProt Q8IV48 63-124, looked up)
chain: DPVYKEIAITNGCINRMSKEELRAKLSEFKLETRGVKDVLKKRLKNYYKKQKLMLKESNFAD
B4: 3’hExo (construct of the SPR experiment not stated) (enzyme)
chain: T1 sequence (looked up)

Experiments:
[1] = target: T1, 3’hExofl; assay: NMR titration
[2] = target: T2, 3’hExo nuclease domain; assay: NMR titration
[3] = target: T1, 3’hExofl; assay: SEC
[4] = target: B2; assay: NMR titration
[5] = target: UPF2 (construct of the SPR experiment not stated) (human); assay: SPR
Chain of UPF2 (construct of the SPR experiment not stated) (human) (Q9HAU5 whole entry): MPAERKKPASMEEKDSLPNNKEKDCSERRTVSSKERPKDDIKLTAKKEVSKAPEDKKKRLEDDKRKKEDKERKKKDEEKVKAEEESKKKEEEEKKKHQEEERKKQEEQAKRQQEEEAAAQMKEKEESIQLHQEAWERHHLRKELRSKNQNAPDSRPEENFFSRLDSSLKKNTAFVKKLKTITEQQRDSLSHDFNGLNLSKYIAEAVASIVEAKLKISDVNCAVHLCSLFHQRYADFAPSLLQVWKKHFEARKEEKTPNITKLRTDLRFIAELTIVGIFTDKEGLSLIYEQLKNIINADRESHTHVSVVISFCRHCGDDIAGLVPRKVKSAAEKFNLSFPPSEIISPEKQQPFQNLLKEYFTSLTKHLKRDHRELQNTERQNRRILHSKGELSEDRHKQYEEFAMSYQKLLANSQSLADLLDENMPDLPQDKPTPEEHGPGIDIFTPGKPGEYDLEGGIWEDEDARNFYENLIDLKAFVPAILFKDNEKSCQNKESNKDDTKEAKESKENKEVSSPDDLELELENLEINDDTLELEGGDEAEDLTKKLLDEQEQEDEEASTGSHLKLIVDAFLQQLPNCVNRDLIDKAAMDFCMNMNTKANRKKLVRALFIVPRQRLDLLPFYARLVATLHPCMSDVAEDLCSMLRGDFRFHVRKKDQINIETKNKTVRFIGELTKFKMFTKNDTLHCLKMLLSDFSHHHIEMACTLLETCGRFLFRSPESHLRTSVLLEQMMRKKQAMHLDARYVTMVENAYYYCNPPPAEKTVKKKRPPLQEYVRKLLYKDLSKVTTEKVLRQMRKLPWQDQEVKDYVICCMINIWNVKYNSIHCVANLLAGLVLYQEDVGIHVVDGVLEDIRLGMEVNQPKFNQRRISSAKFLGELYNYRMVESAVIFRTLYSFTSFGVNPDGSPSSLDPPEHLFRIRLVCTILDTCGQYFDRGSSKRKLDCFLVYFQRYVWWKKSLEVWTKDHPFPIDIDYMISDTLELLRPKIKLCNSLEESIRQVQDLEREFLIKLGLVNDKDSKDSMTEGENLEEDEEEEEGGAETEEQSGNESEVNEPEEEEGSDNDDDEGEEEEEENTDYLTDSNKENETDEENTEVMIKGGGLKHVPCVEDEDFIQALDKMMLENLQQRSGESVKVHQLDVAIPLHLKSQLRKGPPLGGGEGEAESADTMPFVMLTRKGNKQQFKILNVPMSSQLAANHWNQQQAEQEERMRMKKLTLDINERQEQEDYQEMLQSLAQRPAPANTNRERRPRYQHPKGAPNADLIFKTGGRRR

Binder: B1
Kd [1]: ~200 µM

Binder: B2
binding result [2]: binds | binding result [3]: binds

Binder: B3
binding result [4]: binds

Binder: B4
Kd [5]: 170 µM
